In PMC9982069 (PNAS Nexus, 2023):

B1: batCOV5-MCTD-sfGFP, carboxy-terminal domain of batCOV5-M between the two halves of a split superfold (domain or fragment)
chain: ESNCLLNVPIGGTTVVRPLVEDSTSVTAVVTDGYLKMAGMHFGACDFQRLPSEVTVAKPNVLIALKMIKRQAYGTNSGVAIYHRYKAGN
B2: batCOV5-M, M protein of Pipistrellus bat coronavirus HKU5, affinity- and SEC-purified (cross-linking, MST) (natural protein)
chain: MASSNVTLSNDEVLRLVKDWNFTWSVVFLLITIVLQYGYPSRSMFVYVIKMFVLWLLWPASMALSIFCAVYPIDLASQIISGILAATSCAMWISYFVQSIRLFMRTGSWWSFNPESNCLLNVPIGGTTVVRPLVEDSTSVTAVVTDGYLKMAGMHFGACDFQRLPSEVTVAKPNVLIALKMIKRQAYGTNSGVAIYHRYKAGNYRRPPIIQDQELALLRA

Key:
[1] = target: the molecule itself; assay: crystal structure
[2] = target: the molecule itself; assay: cross-linking

| Protein | stoichiometry N [1] | stoichiometry N [2] |
| --- | --- | --- |
| B1 | 4 | – |
| B2 | – | ≥ 2 |
